Source: patent publication US20210139610A1, “COMPOSITIONS AND METHODS FOR MEDIATING EPS” (priority 2018, published 2021)
Entries after “also recorded” stand apart in the source; their conditions may differ.

How the values were obtained:
[1] = system: Non-typeable Haemophilus influenzae biofilms; assay: NTHI in vitro biofilm formation, additive present from seeding (LIVE/DEAD, CLSM, COMSTAT); format: cell-based; details: DNase (Pulmozyme) added at seeding
Procedure: FIG. 14: Non-typeable Haemophilus influenzae biofilms were grown for 40 h in supplemented BHI medium containing additives as indicated below each bar in 8 well chambered coverglass slides at 37° C. and 5% CO2. Biofilms were washed, stained with LIVE/DEAD®, fixed, and imaged by CLSM. Biofilm parameters were quantified using COMSTAT software.
Dicyclohexylamine inhibits spermidine synthase via a competitive inhibition mechanism, i.e. through binding to the same site on the protein as the putrescine substrate. Applicants therefore hypothesized that dicyclohexylamine would inhibit NTHi biofilm development. […]

UPEC biofilms = assay: UPEC in vitro biofilm prevention (at seeding) / disruption (at 24 h); format: cell-based, uropathogenic Escherichia coli (UPEC)
Procedure: FIG. 6: Mature biofilms are resistant to disruption by DNase. DNase (Pulmozyme; 5 units) was added at seeding (prevention) or at 24 h (disruption) to the respective in vitro preformed NTHI and UPEC biofilms. After a total of 40 h, biofilms were stained with LIVE/DEAD®, visualized via CLSM and analyzed by COMSTAT. Bars represent the SEM. Statistical significance compared to control was assessed by unpaired t-tests, *P<0.05; **P<0.01.
FIGS. 35A-35D: DNABII proteins and polyamines (PAs) interact synergistically to induce DNase resistance. […] Biofilms were stained, fixed, visualized via CLSM, and analyzed by COMSTAT. […] Statistical significance compared to Control (No DNase) was assessed by unpaired t-tests, **P<0.01.
FIG. 49: Z-DNA stabilization stimulates biofilm formation. […] Biofilms were stained, fixed, visualized via CLSM, and analyzed by COMSTAT. […] Statistical significance compared to Control (no antibodies) was assessed by paired t-tests, *P<0.05, **P<0.01.
Applicants evaluated the antibiofilm effect of Pulmozyme®, a recombinant human DNase that is used in conjunction with standard therapies for the management of cystic fibrosis (CF) patients to improve pulmonary function. […] The resultant biofilms were stained with LIVE/DEAD® and evaluated using CLSM and COMSTAT analysis.

[2] = system: Z-DNA and B-DNA in the NTHI biofilm extracellular matrix; assay: Immunofluorescence CLSM for Z-DNA / B-DNA in NTHI biofilms; format: cell-based, Non-typeable Haemophilus influenzae; details: DNase (Pulmozyme; 5 units) at 24 h, read at 40 h
Procedure: FIG. 31: DNase degrades B-DNA, but not Z-DNA, within the biofilm extracellular matrix. DNase (Pulmozyme; 5 units) was added at 24 h after biofilm seeding to in vitro pre-formed NTHI biofilms.
FIG. 37: HMGB1 destabilizes Z-DNA structures in the biofilm extracellular matrix. Non-typeable Haemophilus influenzae biofilms were grown in supplemented BHI media in 8 well chambered coverglass slides at 37° C. and 5% CO2. After 24 h, biofilms were treated as indicated above. After 40 h, biofilms were washed, probed with primary antibodies directed against Z-DNA (light gray dots), a fluorescent secondary antibody, stained with DAPI (gray regions), and visualized via fluorescence microscopy.
FIGS. 50A-50B: Equilibrium shift of B-DNA to Z-DNA conversion alters biofilm formation. NTHI biofilms formed for 24 h were incubated with cerium chloride (CeCl3) or chloroquine for an additional 16 h and were probed with naive or anti-Z-DNA (white) by immunofluorescence CLSM.
FIGS. 51A-51B: Equilibrium shift of B-DNA to Z-DNA conversion alters biofilm formation. NTHI biofilms formed for 24 h were incubated with cerium chloride (CeCl3) (FIG. 51A) or chloroquine (FIG. 51B) for an additional 16 h. Z-DNA was measured by IF and CLSM using anti-Z-DNA and cells were stained with the membrane stain FM4-64. Bars represent the SEM. Statistical significance compared to control was assessed by paired t-tests, *P<0.05, **P<0.01.

genomic DNA = assay: Spermidine sensitivity of nucleases on genomic DNA; format: biochemical; details: Spermidine titrated from 10 μM-10 mM
[3] = system: Biofilms formed for 24 h by the indicated bacteria (Kp=K. pneumoniae); assay: B-DNA / Z-DNA abundance after DNase in 24 h biofilms of the indicated bacteria (ImageJ fluorescence ratio); format: cell-based; details: Pulmozyme 40 U/ml for 16 h
Procedure: FIGS. 48A-48B: Z-DNA in biofilms forms a nuclease-resistant scaffold. (FIG. 48A) Biofilms formed for 24 h by the indicated bacteria (Kp=K. pneumoniae) were incubated with DNase (Pulmozyme®; 40 U/ml) for an additional 16 h. Biofilms were then probed with anti-B-DNA (dark gray) and anti-Z-DNA (white) antibodies and counterstained with the bacterial cell membrane stain FM4-64™ (not shown). (FIG. 48B) Changes in abundance of B-DNA or Z-DNA were quantified using ImageJ by calculation of the ratio of fluorescence intensity of B-DNA or Z-DNA after DNase addition divided by the fluorescence intensity in the absence of DNase (Control). Fluorescence intensity was normalized to the fluorescence signal of FM4-64™-stained cells. Bars represent the SEM. Statistical significance compared to Control (no DNase, dotted line) was assessed by paired t-tests, *P<0.05; ****P<0.0001.

B1: DNase: Pulmozyme, a recombinant human DNase used for management of cystic fibrosis patients (protein, UniProt P24855 23-282, looked up)
Deoxyribonuclease-1: LKIAAFNIQTFGETKMSNATLVSYIVQILSRYDIALVQEVRDSHLTAVGKLLDNLNQDAPDTYHYVVSEPLGRNSYKERYLFVYRPDQVSAVDSYYYDDGCEPCGNDTFNREPAIVRFFSRFTEVREFAIVPLHAAPGDAVAEIDALYDVYLDVQEKWGLEDVMLMGDFNAGCSYVRPSQWSSIRLWTSPTFQWLIPDSADTTATPTHCAYDRIVVAGMLLRGAVVPDSALPFNFQAAYGLSDQLAQAISDHYPVEVMLK
- NTHI biofilm prevention (average thickness, biomass) [1]: significant reduction in average thickness and biomass of NTHI and UPEC biofilms; also recorded: can prevent formation of
- UPEC mature biofilm disruption (UPEC biofilms; DNase (Pulmozyme) added at 24 h): unable to disrupt mature biofilms; also recorded: not disrupt extant biofilms
- UPEC biofilm prevention (average thickness, biomass) (UPEC biofilms; DNase (Pulmozyme) added at seeding): significant reduction in average thickness and biomass of NTHI and UPEC biofilms; also recorded: can prevent
- B-DNA form eDNA in NTHI biofilm matrix [2]: degrades B-DNA form eDNA structures
- Z-DNA form eDNA in NTHI biofilm matrix [2]: reveals extensive Z-DNA form eDNA
- Spd inhibition: spermidine concentration where nuclease was reduced to <10% activity on genomic DNA (genomic DNA): 300 µM
- B-DNA abundance after DNase [3]: B-DNA is degraded
- Z-DNA abundance after DNase [3]: Z-DNA is resistant
